{"source": "patent US11932683B2", "about": "“Cellular factors involved in the cytotoxicity of Staphylococcus aureus leukocidins: novel therapeutic targets” (NEW YORK UNIVERSITY, priority 2013, dated 2024)", "key": {"DARC": {"biological_target": "T1, DARC (Homo sapiens, UniProt Q16570)", "T1 construct": "expressed in transfected cells; host or cells: HEK293T", "T1 sequence (Q16570 1-336)": "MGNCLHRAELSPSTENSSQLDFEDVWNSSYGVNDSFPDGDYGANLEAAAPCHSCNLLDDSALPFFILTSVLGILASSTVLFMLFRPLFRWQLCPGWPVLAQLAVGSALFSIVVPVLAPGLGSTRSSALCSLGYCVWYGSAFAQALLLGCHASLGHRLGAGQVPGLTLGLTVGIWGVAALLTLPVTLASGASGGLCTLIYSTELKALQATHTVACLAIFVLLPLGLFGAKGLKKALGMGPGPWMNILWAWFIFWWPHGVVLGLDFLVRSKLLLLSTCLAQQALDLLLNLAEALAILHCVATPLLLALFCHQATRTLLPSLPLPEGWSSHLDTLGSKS", "assay": "Toxin susceptibility of HEK293T cells transfected with DARC", "format": "cell-based", "details": "ethidium bromide permeability (1 hr; HlgAB/HlgCB 20 μg/ml)"}, "CXCR2 [1]": {"biological_target": "T2, CXCR2 (Homo sapiens, UniProt P25025)", "T2 sequence (P25025 1-360)": "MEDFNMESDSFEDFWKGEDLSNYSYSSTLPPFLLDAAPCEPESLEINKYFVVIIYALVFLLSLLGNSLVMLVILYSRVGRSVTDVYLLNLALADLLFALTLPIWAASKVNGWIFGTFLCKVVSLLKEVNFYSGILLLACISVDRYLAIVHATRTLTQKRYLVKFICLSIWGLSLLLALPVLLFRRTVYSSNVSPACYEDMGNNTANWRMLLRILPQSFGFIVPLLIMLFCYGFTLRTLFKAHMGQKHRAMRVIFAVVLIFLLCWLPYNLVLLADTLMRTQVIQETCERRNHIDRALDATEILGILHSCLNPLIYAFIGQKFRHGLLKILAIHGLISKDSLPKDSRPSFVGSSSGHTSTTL", "assay": "Toxin susceptibility of HEK293T cells transfected with chemokine receptor CXCR2", "format": "cell-based", "set-up": "expressed in transfected cells; host or cells: HEK293T", "details": "viability (600 nM) or ethidium bromide permeability (1 hr; HlgAB/HlgCB 20 μg/ml)", "description": "Cell culture conditions and viral transductions. Primary human cells and THP-1 were cultured at 37° C. with 5% CO2 in RPMI supplemented with 10% fetal bovine serum (FBS; Atlanta Biologicals) and penicillin (100 U ml-1) and streptomycin (0.1 mg ml-1) (Mediatech) unless stated otherwise. Overexpression and lentiviral-based knockdown of Cxcr2 or non-target shRNA were performed as previously described (Wan et al., “Cytokine Signals Through PI-3 Kinase Pathway Modulate Th17 Cytokine Production by CCR6+ Human Memory T Cells,” J. Exp. Med. 208:1875-1887 (2011), which is hereby incorporated by reference in its entirety) and maintained in 1.3 μg ml-1 puromycin. HEK293T cells were cultured at 37° C. with 5% CO2 in DMEM (Cellgro) and supplemented as described above.\n(§1) Leukotoxin treatments. HEK293T cells, THP-1, primary human PBMCs and primary murine peritoneal exudate cells were treated with LukE, LukD or LukED as previously described (Alonzo et al., “CCR5 is a Receptor for Staphylococcus aureus Leukotoxin ED,” Nature 493:51-55 (2013), which is hereby incorporated by reference in its entirety). In all experiments 1-2×10^5 cells were seeded into 96-well plates. […]"}, "human PMNs [2]": {"test_system": "human PMNs", "assay": "Viability of primary human neutrophils (PMNs) treated with leukotoxins", "format": "cell-based", "details": "HlgA or hybrid mixed equimolar with HlgB; CellTiter; n=8 donors"}, "CXCR1 [3]": {"biological_target": "T3, CXCR1 (Homo sapiens, UniProt P25024)", "T3 sequence (P25024 1-350)": "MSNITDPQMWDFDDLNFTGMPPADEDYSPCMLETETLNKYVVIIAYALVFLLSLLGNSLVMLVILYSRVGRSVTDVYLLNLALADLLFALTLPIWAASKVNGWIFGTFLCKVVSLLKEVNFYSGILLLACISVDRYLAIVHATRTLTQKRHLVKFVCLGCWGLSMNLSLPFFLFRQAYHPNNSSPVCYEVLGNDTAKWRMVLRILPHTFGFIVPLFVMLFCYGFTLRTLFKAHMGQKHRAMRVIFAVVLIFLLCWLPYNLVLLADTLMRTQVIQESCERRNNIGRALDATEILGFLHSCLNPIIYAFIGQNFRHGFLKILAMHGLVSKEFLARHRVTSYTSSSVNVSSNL", "assay": "Toxin susceptibility of HEK293T cells transfected with chemokine receptor CXCR1", "format": "cell-based", "set-up": "expressed in transfected cells; host or cells: HEK293T", "details": "viability (600 nM) or ethidium bromide permeability (1 hr; HlgAB/HlgCB 20 μg/ml)"}, "[4]": {"test_system": "CXCR1 and CXCR2 activation on human PMNs", "assay": "Calcium mobilization on PMNs (Fluo4-AM, flow cytometry)", "format": "cell-based", "details": "LukE 300 nM", "description": "Measurements of calcium mobilization. CXCR1 and CXCR2 activation on human PMNs was evaluated using the fluorescent calcium indicator Fluo4-AM (Invitrogen) as previously described (Alonzo et al., “CCR5 is a Receptor for Staphylococcus aureus Leukotoxin ED,” Nature 493:51-55 (2013), which is hereby incorporated by reference in its entirety). Briefly, cells were incubated for 30 minutes at room temperature with 3 μM of Fluo4-AM in Hank's Balanced Salt Solution (HBSS) followed by three washes in HBSS and equilibration at 37° C. for 30 minutes. Baseline calcium levels were analyzed over time on a flow cytometer for 60 seconds. […] The mean fluorescent intensity over 5-second intervals was plotted for graphical display."}, "CXCR2 [5]": {"biological_target": "T2, CXCR2", "assay": "Pulldown of His-tagged toxin with cell lysates containing HA-tagged CXCR2", "format": "binding", "set-up": "host or cells: HEK293T", "details": "HA-tagged receptor lysate", "description": "(§2) Biochemical assays to examine interactions between LukED and CXCR1 or CXCR2. HEK293T cells were transiently transfected with cDNAs encoding N-terminal HA-tagged CXCR1 or CXCR2 (Missouri S&T cDNA Resource Center) using Lipofectamine 2000 (Invitrogen). Forty-eight hours post transfection, cells were detached with PBS containing 5 mM EDTA and membrane proteins were solubilized (approximately 1×10^6 cells per condition) for 1 hour using lysis buffer (PBS+10mM imidazole (Fisher)+1% Brij 010 (Sigma)+1 mM PMSF (Thermo Scientific)+2× protease inhibitor pellets (Roche)). His-tagged LukE and LukD were incubated with equilibrated Ni-NTA resin (Qiagen) for 2 hours, followed by three washes in lysis buffer. Lysates and resin were then incubated together for 2 hours, followed by three washes in lysis buffer and final resuspension of resin in 45 μl of 4×SDS sample buffer. Protein samples were run on 10% SDS-PAGE gels at 80V, followed by transfer to nitrocellulose membranes (GE) for 1 hour at 1 Amp. Membranes were blocked with PBS+0.01% Tween-20+5% non-fat milk for 1 hour and incubated overnight at 4° C. with either anti-His antibody diluted at 1:3,000 in PBS+0.01% Tween-20 for toxins (Cell Sciences) or anti-HA antibody diluted at 1:1,000 in with PBS+0.01% Tween-20+5% non-fat milk for receptors (Covance). […]"}, "human PMNs [6]": {"test_system": "human PMNs", "assay": "Binding and competition assays with GFP-LukE/GFP-LukD on PMNs, flow cytometry", "details": "GFP-LukE 300 nM", "experimental": "Binding and competition assays. For binding assays, increasing concentrations of GFP-LukE or GFP-LukD were added to 5×10^4 human PMNs and incubated for 30 minutes on ice, then washed once in FACS buffer and fixed for 15 minutes at room temperature followed by flow cytometric analysis. Mean fluorescence intensity (MFI) of GFP^+ cells was measured to establish the toxin concentration required to achieve saturable binding. For remaining competition assays, increasing concentrations of either LukE or LukS-PV were co-incubated with a constant saturable concentration of LukE-GFP (300 nM) for 30 minutes. Cells were washed once in FACS buffer, fixed for 15 minutes in FACS fixing buffer, washed again in FACS buffer, and binding was assessed by flow cytometry. The mean GFP fluorescent intensity is represented as % GFP^+, based on the maximal fluorescence observed upon incubation with 300 nM GFP-LukE. […] Cells were washed once in FACS buffer, fixed for 15 minutes in FACS fixing buffer, washed again in FACS buffer, and binding was assessed by flow cytometry as described above. Results for these assays were depicted graphically using GraphPad PRISM software (version 5.0f, GraphPad PRISM Software, Inc.)."}, "CXCR1 [7]": {"biological_target": "T3, CXCR1", "assay": "Pulldown of His-tagged toxin with cell lysates containing HA-tagged CXCR1", "format": "binding", "set-up": "host or cells: HEK293T", "details": "HA-tagged receptor lysate", "description": "as §2"}, "CCR5^+ cells": {"test_system": "CCR5^+ cells", "details": "cited from earlier work"}, "monocytes within PBMCs": {"test_system": "monocytes within PBMCs", "assay": "LukED treatment of human PBMCs, CD14/CD3 flow cytometry", "format": "cell-based", "details": "CCR5+-gated PBMC; LukED 75 nM plus MVC 100 ng/mL", "description": "Isolation of PBMCs. Blood was obtained as buffy coats with the consent of de-identified donors from the New York Blood Center. PBMCs were isolated from blood using a Ficoll-Paque PLUS gradient (GE Amersham) and gated on CCR5^+ cells, followed by anti-CD3 and CD14 cell surface staining for lymphocyte and monocyte populations. Cells were then incubated with LukED (75 nM) in the presence or absence of maraviroc (MVC, 100 ng ml-1).\nCCR5 inhibitor and ligands. Maraviroc was obtained through the AIDS Research and Reference Reagent Program, Division of AIDS (NIAID, NIH) and used at a final concentration of 100 ng ml-1.\nFACS analysis. Cell staining was performed as described previously (Alonzo et al., “CCR5 is a Receptor for Staphylococcus aureus Leukotoxin ED,” Nature 493:51-55 (2013), which is hereby incorporated by reference in its entirety). FACS data were obtained using FACSDiva software on a LSRII flow cytometer (BD Biosciences). Data was analyzed using FlowJo software (Treestar).\nas §1"}, "human RBCs": {"test_system": "human RBCs", "assay": "LukED-mediated lysis of human red blood cells", "format": "cell-based", "details": "n=3 donors"}}, "data": [{"molecule": "HlgAB: S. aureus γ-hemolysin bicomponent leukotoxin, HlgA (SEQ ID NO:6) plus HlgB (SEQ ID NO:16)", "values": [{"measurement": "susceptibility of DARC-transfected HEK293T cells to toxin", "setting": "DARC", "value": "rendered cells susceptible"}, {"measurement": "susceptibility of CXCR2-transfected HEK293T cells to toxin", "setting": "CXCR2 [1]", "value": "rendered cells susceptible"}, {"measurement": "cytotoxic activity against hPMNs", "setting": "human PMNs [2]", "value": "exhibited potent cytotoxic activity against hPMNs"}, {"measurement": "susceptibility of CXCR1-transfected HEK293T cells to toxin", "setting": "CXCR1 [3]", "value": "rendered cells susceptible"}]}, {"molecule": "LukE: S. aureus Leukocidin E subunit, soluble protein SEQ ID NO:4", "values": [{"measurement": "calcium mobilization on PMNs", "setting": "[4]", "value": "unable to elicit calcium mobilization"}, {"measurement": "complex formation with CXCR2 (pulldown, immunoblot)", "setting": "CXCR2 [5]", "value": "forms complexes with both CXCR1 and CXCR2"}, {"measurement": "competition with GFP-LukE binding to PMNs", "setting": "human PMNs [6]", "value": "competed off"}, {"measurement": "complex formation with CXCR1 (pulldown, immunoblot)", "setting": "CXCR1 [7]", "value": "forms complexes with both CXCR1 and CXCR2"}]}, {"molecule": "Maraviroc [reference compound]", "values": [{"measurement": "block of LukED mediated killing of CCR5+ cells", "setting": "CCR5^+ cells", "value": "known to block LukED mediated killing of CCR5^+ cells"}, {"measurement": "protection of monocytes from LukED-mediated death", "setting": "monocytes within PBMCs", "value": "does not protect monocytes from LukED-mediated death"}]}, {"molecule": "HlgA^LukE-DR4/HlgB: HlgA with its DR4 domain swapped with LukE DR4, mixed equimolar with HlgB (protein, left off: small tags and cut ends) chain 1: ENKIEDIGQGAEIIKRTQDITSKRLAITQNIQFDFVKDKKYNKDALVVKMQGFISSRTTYSDLKKYPYIKRMIWPFQYNISLKTKDSNVDLINYLPKNKIDSADVSQKLGYNIGGNFQSAPSIGGSGSFNYSKTISYNQKNYVTEVESQNSKGVKWGVKANSFVTPNGQVSAYDQYLFAQSPNGPTGSAREYFAPDNQLPPLIQSGFNPSFITTLSHERGKGDKSEFEITYGRNMDATYAYVTRHRLAVDRKHDAFKNRNVTVKYEVNWKTHEVKIKSITPK chain 2: EGKITPVSVKKVDDKVTLYKTTATADSDKFKISQILTFNFIKDKSYDKDTLVLKATGNINSGFVKPNPNDYDFSKLYWGAKYNVSISSQSNDSVNVVDYAPKNQNEEFQVQNTLGYTFGGDISISNGLSGGLNGNTAFSETINYKQESYRTTLSRNTNYKNVGWGVEAHKIMNNGWGPYGRDSFHPTYGNELFLAGRQSSAYAGQNFIAQHQMPLLSRSNFNPEFLSVLSHRQDGAKKSKITVTYQREMDLYQIRWNGFYWAGANYKNFKTRTFKSTYEIDWENHKVKLLDTKETENNK", "values": [{"measurement": "cytotoxic activity against hPMNs", "setting": "human PMNs [2]", "value": "exhibited potent cytotoxic activity against hPMNs"}]}, {"molecule": "DARC: purified Duffy antigen receptor for chemokines (OriGene Technologies Inc.) (protein) MGNCLHRAELSPSTENSSQLDFEDVWNSSYGVNDSFPDGDYGANLEAAAPCHSCNLLDDSALPFFILTSVLGILASSTVLFMLFRPLFRWQLCPGWPVLAQLAVGSALFSIVVPVLAPGLGSTRSSALCSLGYCVWYGSAFAQALLLGCHASLGHRLGAGQVPGLTLGLTVGIWGVAALLTLPVTLASGASGGLCTLIYSTELKALQATHTVACLAIFVLLPLGLFGAKGLKKALGMGPGPWMNILWAWFIFWWPHGVVLGLDFLVRSKLLLLSTCLAQQALDLLLNLAEALAILHCVATPLLLALFCHQATRTLLPSLPLPEGWSSHLDTLGSKS", "values": [{"measurement": "inhibition of LukED-mediated lysis of RBCs", "setting": "human RBCs", "value": "fully neutralize LukED-mediated lysis of RBCs"}]}]}
